Consider eight sequences from a protein production outcome set (Wang et al. 2014).

The series in a line: label from the status in PepcDB records.
As for “GRPDGPVRTKKLKRGRPGRKKKKVLGCPAVAGEEEVDGYETDHQDYCEVCQQGGEIILCDTCPRAYHLVCLDPELDRAPEGKWSCPHCEKEGVQ”, the protein production result is listed as “failed”. As for “MALTTISPHDAQELIARGAKLIDIRDADEYLREHIPEADLAPLSVLEQSGLPAKLRHEQIIFHCQAGKRTSNNADKLAAIAAPAEIFLLEDGIDGWKKAGLPVAVNKSQPLPLMRQVQIAAGGLILIGVVLGYTVNSGFFLLSGFVGAGLLFAGISGFCGMARLLDKMPWNQRA”, the protein production result is “failed”.

Regarding “MRTKNILAALALFLGISLPSLVEAANAYATGNVNVRTGPGTRYPRTGTIPAGATLTIRGCLNGYSWCEVIFAGQSGWASSNYLQATYQNRRRPVIHIGPVIGLPVIVHKPRPPHWEHRPRPPRPPHWGHRPRPPHWDHRPRPPRPQPRLEHHHHHH”, the protein production result is on record as “not failed”. “MRVGVLGAKGKVGATMVRAVAAADDLTLSAELDAGDPLSLLTDGNTEVVIDFTHPDVVMGNLEFLIDNGIHAVVGTTGFTAERFQQVESWLVAKPNTSVLIAPNFAIGAVLSMHFAKQAARFFDSAEVIELHHPHKADAPSGTAARTAKLIAEARKGLPPNPDATSTSLPGARGADVDGIPVHAVRLAGLVAHQEVLFGTEGETLTIRHDSLDRTSFVPGVLLAVRRIAERPGLTVGLEPLLDLH”: the protein production result is recorded as “not failed”. As for “MSLLFLAMAPKPKPWVQTEGPEKKKGRQAGREEDPFRSTAEALKAIPAEKRIIRVDPTCPLSSNPGTQVYEDYNCTLNQTNIENNNNKFYIIQLLQDSNRFFTCWNRWGRVGEVGQSKINHFTRLEDAKKDFEKKFREKTKNNWAERDHFVSHPGKYTLIEVQAEDEAQEAVVKVDRGPVRTVTKRVQPCSLDPATQKLITNIFSKEMFKNTMALMDLDVKKMPLGKLSKQQIARGFEALEALEEALKGPTDGGQSLEELSSHFYTVIPHNFGHSQPPPINSPELLQAKKDMLLVLADIELAQALQAVSEQEKTVEEVPHPLDRDYQLLKCQLQLLDSGAPEYKVIQTYLEQTGSNHRCPTLQHIWKVNQEGEEDRFQAHSKLGNRKLLWHGTNMAVVAAILTSGLRIMPHSGGRVGKGIYFASENSKSAGYVIGMKCGAHHVGYMFLGEVALGREHHINTDNPSLKSPPPGFDSVIARGHTEPDPTQDTELELDGQQVVVPQGQPVPCPEFSSSTFSQSEYLIYQESQCRLRYLLEVHL”, the protein production entry was “not failed”.

For the sequence “MVNFDEEVFRAYYEHKIKSFIKEELSNNLIKGNIFEFDIEKFLMHFPDACEVNDLIIERPKEIEEIILDIFKEAYVELFGEDKELEKIQIAFKNPKGCEKLIEEISAEDINKLVKFEGNILQAGKVNALLKKAVYYCNKRIKDENGGFLCKYTYTPCDGRVEIEIDDYFSEGEFIKDMLSPREVKKILENKKVWDKLVEKGKIPRCVDLKENDEVFKENLKEIKFILDEYDSIYVNIQEMEIQQPIDLMKNPEEPARSIRVFLENTPGIYAGRVNVIGRVMKREYRHNIPIYKIYIKSNYIKISESYNKIEVKDILRNEELIETLNELGRKKNIIDILSNYLISQIKGYELVKKAIFLQQIKGAFKFLPDGTPLRRDSHILLITDPGIGKSTMLRRIARLFPQNAYASVTTATGGGLTAIVTREATEIGDGWVVKPGVFVRANEGTACIDELTVDKNVMKYILEAMESQTIHVNKGGINVKLPARCAVLAACNPKRGRFDRNLTVIEQIDIPAPLLSRFDLIFPLMDKPNRKSDEEIAEHILNTHIETATKDYKILGAIDIDGITVDEKLLKYYIIYARSCAYIEENQDLYLGEFDETKLIMPYLTDKAKKMIKKYYLEMRKLGEGDNPIPITARQLEAIIRIAEMHAKARLSDKVEDVDAEVAISIIDDCLKQVAYDPETGTLDLDKIAGTPKSRRDKMDAVLNIIREIVSLRDDGLAPEEEIYEKAMAIGLSEKDVNDALEYLKKAGDIYNPRYGFWGLL”, the protein production entry is recorded as “failed”.

On to “MLFKTIFYQKLQKKVTTLFNLETERVIREIENLNKNNPKVIFQAPEGLKLKVEKEIEKIKQYFKQKNINIEIYLWGNTCFGACDLIDNHVKNLNVDLIIHYGHEKLSYANPEIKTLFIPAYHIFNKDEEEKILNDIKNFIEKHKSGGKKVAIATTIQYKKLLKDFNPSIILGCRGEVKEGDVILFVGTGRFHPLMIAYKYQKEVFIYNPLSKCFDKISEEEINKFIKKRILAISKLLLNKPKKVGVVLSTKKGQCRKRVFDEIIKLLEENDVNYLPILVDNISPDILFYDVDCYIIVACPRIVLDDYILYKKPIYTPEEFKLFLKNSFKYKFDEIKEDDFLEHHHHHH”, for which the protein production result is reported as “not failed”.

In the case of “PEDSARVWQAFSRTLQTGEHVEIDYRYLDPGADDWIHLHVAWRGVRGSSPDTYDVIGITQNVTELVAARDAALAAAETKSQFLANMSHEIRTPMNGVLGVLHLLKTEK”, the protein production entry was “failed”.
